From patent US20170137467A1 (CHROMOTEK, published 2017)
Residue numbers refer to the chain shown, from its start. Blank lines part the entries; values can stand above or below the binder they belong to. Square brackets hold non-standard residues; d marks the D form. GABA = NCCCC(=O)O

Columns and labels:
BC2T K4E = target: T1, BC2T K4E (human); test: library pulldown, LC-MS of supernatant; ratio vs GFP-Nb control (0=captured, 1=not captured)
T1 construct: position 4 library, row E
T1 peptide: Ac-PDREAAVSHWQQ-NH2
Method in brief: (§1)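 Unbound peptide left in supernatant after 1 h pulldown in PBS/0.01% CHAPS measured by reversed-phase LC-MS (8–30% eluent B gradient, 20 min).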

BC2T Q11C(Abu) = target: T2, BC2T Q11C(Abu) (SMILES …); test: positional peptide library pulldown on immobilised Nb, LC-MS of supernatant; signal ratio to control GFP-Nb (1 = not captured, near 0 = captured)
T2 construct: positional scanning library member
T2 peptide: Ac-PDRKAAVSHW[GABA]Q-NH2
Method in brief: as §1

BC2T Q12A = target: T3, BC2T Q12A; test: as above
T3 construct: positional scanning library member
T3 peptide: Ac-PDRKAAVSHWQA-NH2
Method in brief: as §1

BC2T Q11Y = target: T4, BC2T Q11Y; test: as above
T4 construct: positional scanning library member
T4 peptide: Ac-PDRKAAVSHWYQ-NH2
Method in brief: as §1

BC2T H9K = target: T5, BC2T H9K; test: as above
T5 construct: positional scanning library member
T5 peptide: Ac-PDRKAAVSKWQQ-NH2
Method in brief: as §1

BC2T S8(I/L1) = target: T6, BC2T S8(I/L1) (N-terminal acetyl; C-terminal amide); test: as above
T6 construct: positional scanning library member; I or L not resolved
Method in brief: as §1

BC2T Q12S = target: T7, BC2T Q12S; test: as above
T7 construct: positional scanning library member
T7 peptide: Ac-PDRKAAVSHWQS-NH2
Method in brief: as §1

BC2T Q12(I/L2) = target: T8, BC2T Q12(I/L2) (N-terminal acetyl; C-terminal amide); test: as above
T8 construct: positional scanning library member; I or L not resolved
Method in brief: as §1

BC2T Q12N = target: T9, BC2T Q12N; test: as above
T9 construct: positional scanning library member
T9 peptide: Ac-PDRKAAVSHWQN-NH2
Method in brief: as §1

BC2T H9Y = target: T10, BC2T H9Y; test: as above
T10 construct: positional scanning library member
T10 peptide: Ac-PDRKAAVSYWQQ-NH2
Method in brief: as §1

BC2T Q12Y = target: T11, BC2T Q12Y; test: as above
T11 construct: positional scanning library member
T11 peptide: Ac-PDRKAAVSHWQY-NH2
Method in brief: as §1

BC2T W10F = target: T12, BC2T W10F; test: as above
T12 construct: positional scanning library member
T12 peptide: Ac-PDRKAAVSHFQQ-NH2
Method in brief: as §1

BC2T H9W = target: T13, BC2T H9W; test: as above
T13 construct: positional scanning library member
T13 peptide: Ac-PDRKAAVSWWQQ-NH2
Method in brief: as §1

BC2T S8C(Abu) = target: T14, BC2T S8C(Abu) (also: Abu described as gamma-amino butyric acid); test: as above
T14 construct: positional scanning library member
T14 peptide: Ac-PDRKAAV[GABA]HWQQ-NH2
Method in brief: as §1

BC2T W10G = target: T15, BC2T W10G; test: as above
T15 construct: positional scanning library member
T15 peptide: Ac-PDRKAAVSHGQQ-NH2
Method in brief: as §1

BC2T Q12M = target: T16, BC2T Q12M; test: as above
T16 construct: positional scanning library member
T16 peptide: Ac-PDRKAAVSHWQM-NH2
Method in brief: as §1

BC2T S8Y = target: T17, BC2T S8Y; test: as above
T17 construct: positional scanning library member
T17 peptide: Ac-PDRKAAVYHWQQ-NH2
Method in brief: as §1

BC2T Q11H = target: T18, BC2T Q11H; test: as above
T18 construct: positional scanning library member
T18 peptide: Ac-PDRKAAVSHWHQ-NH2
Method in brief: as §1

BC2T Q12F = target: T19, BC2T Q12F; test: as above
T19 construct: positional scanning library member
T19 peptide: Ac-PDRKAAVSHWQF-NH2
Method in brief: as §1

BC2T Q11(I/L1) = target: T20, BC2T Q11(I/L1) (N-terminal acetyl; C-terminal amide); test: as above
T20 construct: positional scanning library member; I or L not resolved
Method in brief: as §1

ratio (BC2T K4E): 0.5
B1: BC2 nanobody (BC2-Nb) (VHH)
VHH: QVQLVESGGGLVQPGGSLTLSCTASGFTLDHYDIGWFRQAPGKEREGVSCINNSDDDTYYADSVKGRFTIFMDNAKDTVYLQMNSLKPEDTAIYYCAEARGCKRGRYEYDFWGQGTQVTVSS
notes: immobilised on agarose/sepharose beads in this assay; also called BC2 nanotrap (immobilised form); not shown: C-terminal 6xHis-tag added by pHEN6 vector

B2: BC2 nanobody (VHH)
VHH: B1 VHH
notes: immobilised on beads in this assay; also called BC2-Nb; BC2 nanotrap (immobilised)
ratio (BC2T Q11C(Abu)): 0.1 | ratio (BC2T Q12A): 0.1 | ratio (BC2T Q11Y): 0 | ratio (BC2T H9K): 0.2 | ratio (BC2T S8(I/L1)): 0.4 | ratio (BC2T Q12S): 0.1 | ratio (BC2T Q12(I/L2)): 0.1 | ratio (BC2T Q12N): 0.1 | ratio (BC2T H9Y): 0.1 | ratio (BC2T Q12Y): 0.1 | ratio (BC2T W10F): 0.9 | ratio (BC2T H9W): 0.1 | ratio (BC2T S8C(Abu)): 0 | ratio (BC2T W10G): 1.2 | ratio (BC2T Q12M): 0.1 | ratio (BC2T S8Y): 0.6 | ratio (BC2T Q11H): 0.1 | ratio (BC2T Q12F): 0.2 | ratio (BC2T Q11(I/L1)): 0.1

ratio (BC2T Q11C(Abu)): 0.3 | ratio (BC2T Q12A): 0.3 | ratio (BC2T Q11Y): 0.1 | ratio (BC2T H9K): 0.3 | ratio (BC2T S8(I/L1)): 0.6 | ratio (BC2T Q12S): 0.2 | ratio (BC2T Q12(I/L2)): 0.2 | ratio (BC2T Q12N): 0.2 | ratio (BC2T H9Y): 0.2 | ratio (BC2T Q12Y): 0.3 | ratio (BC2T W10F): 1.1 | ratio (BC2T H9W): 0.1 | ratio (BC2T S8C(Abu)): 0.1 | ratio (BC2T W10G): 1.1 | ratio (BC2T Q12M): 0.3 | ratio (BC2T S8Y): 0.9 | ratio (BC2T Q11H): 0.2 | ratio (BC2T Q12F): 0.4 | ratio (BC2T Q11(I/L1)): 0.2
B3: BC2-NbR106S (VHH)
VHH: B1 VHH with R106S
notes: headlock mutant of BC2-Nb; immobilised on beads in this assay
